Test: soluble on expression in E. coli; label from the status in PepcDB or PDB records

| Sequence | soluble on expression in E. coli |
| --- | --- |
| MPISIQQISYIHPDKEVLFSDLNFAISKGQKLGLVGNNGCGKSTLLQIIAGQLAPSSGVIVRPDDLYYIPQHFGQYDSLTIAQALQIDHKQKALHAILAGDASIENFSILNDDWNIEERSVAALDSWGLGQFPLSYPMNLLSGGEKTRVFLAGMDIHNPSVILMDEPTNHLDSSGRQRLYDWVEKWRSTLLVVSHDRTLLNLLPEICELEKHQISYYGGNYEFYKEQKTLMQEALQQRIEEKEKALRTARKVARETAERRDKQNVRGEKRNLKKGVPRIVLNGLQSKSEKSTAKLTGAHQEKAEKLTDERNQLRSSLSPTAALKTDFNNSGLHTGKILVTAEEINFGYHPDQPQLWQAPLSFQLKSGDRLRIEGGNGSGKTTLLKIITGQLQPLKGTLIQANFTYVYLNQEYSIINDRNSILEQAYAFNGRNLPEHEIKIILNRYLFPASEWDKSCRKLSGGEKMRLAFCCLMISNNMPDMFILDEPTNNLDIQSIEIITATIKNYAGTVIAISHDNYFIQEIGVEQSIFLS | not soluble |
| MPKERKERSVSLDKYKRSPLCCEASLALKPSEKQVKEWEEARCPVCMEHPHNGILLICSSYENGCRPYMCDTSHRHSNCFDQFRKASKEKPSLSLLREEEESNEPTEMEDVDSDSTAVNLLGEAASEITVVDLSDGERGEEEVEEEEEEVVVEEEEEGIVTTEEDQEKNKPQKLTCPLCRGHIKEWVVVKAARCFMNSKHRSCSCETCDFSGSYSDLRKHARLLHPGVRPSEADPERQRSWRRLERQSDLGDLLSTLQSSFGGDEISNDDGFLFADTRLLTVYFLIRVFRPESSGSRSSSWSGTSRARTHTSGRRRSSRPASLWGESYEGNTGTSPRDEENNQSSDEQVSGTRRRRSRRRTVIDDDDEEEEP | not soluble |
| MPKIPITLITGFLGSGKTSFLSEYLNQTDHQGVALIINEIGQAALDQRILSVQYCGEKMLYLNAGCVCCNKRLDLVESLKATLNNYEWHGEILRRIIIETTGLANPAPILWTILSDTFLGVHFEIQSVVACVDALNAREHLTNNEAKEQIVFADSVLLTKTDLQNDSAALTKLKERIQALNPSAEIFDKRAIDYESLFSRKNRARNFMPLEHHHHHH | not soluble |
| MPKISSRDGGRPAQRTVNPIIVTRRGKIARLESGLTPQEAQIEDLVFLRKVLNRADIPYLLIRNHKNRPVLAINIELRAGLERALAAACATEPMYAKTIDEPGLSPVLVATDGLSQLVDPRVVRLYRRRIAPGGFRYGPAFGVELQFWVYEETVIRCPVENSLSRKVLPRNEITPTNVKLYGYKWPTLDGMFAPHASDVVFDIDMVFSWVDGSDPEFRARRMAQMSQYVVGEGDDAEARIRQIDELKYALRSVNMFAPWIRRIFIATDSTPPPWLAEHPKITIVRAEDHFSDRSALPTYNSHAVESQLHHIPGLSEHFLYSNDDMFFGRPLKASMFFSPGGVTRFIEAKTRIGLGANNPARSGFENAARVNRQLLFDRFGQVITRHLEHTAVPLRKSVLIEMEREFPEEFARTAASPFRSDTDISVTNSFYHYYALMTGRAVPQEKAKVLYVDTTSYAGLRLLPKLRKHRGYDFFCLNDGSFPEVPAAQRAERVVSFLERYFPIPAPWEKIAADVSRRDFAVPRTSAPSEGA | soluble |
| MPKLGIKPLRRQQLIDATLRSISERGLQNTTIVSISKIAGMSSGIISHYFGGKKELIEETVSYLLDQLQQSLLERITEENPPAHIRLNLIVEANFTEFQRSLLATKTWLSFWAMSMHDPAMARLQSINSNRLHSNLLFSFKELLDPESAANAAKQTAAMIDGFWLRSALSENSEQEFIAAELLCKKFINDVIKQEISNASN | not soluble |
| MPKLILLGDSTLDNFNWVPNKATVTDHLRRQLPKMEILNFAVDGFTTDSILYGEYKDCAVTSSQHTHKYFEPLKALENEQDVEHIVLSVLGNDFRIQLSKLIFMAPEERPKAIEQLINHIIKNYIQVVKEIRKVQPNAKLSIVLQYTPYVENDPYLIYFLMDKLFHHGTVSHGFLSYLQIMYYSIFGLNSKHEQQALNLLHKLMAKVYRNVFNELGDNSLAIIDLASSFDYRNSKLYKAQIEPSDEGGKLIASLITHTITHHDFQNESMLYAKPPLQPNPKILAVPLTKLKKDWFPQQIYVTQEQAITAFKQAYLLQLNKDRQSYLGLYSFFARSNVDFEHATLEKLIVHAQNYSTKKTGYRTLKVMQNLGWLTEQGNIKEESGIVRLLKN | not soluble |
| MPLLDSFKVDHTKMNAPAVRIAKTMLTPKGDNITVFDLRFCIPNKEILSPKGIHTLEHLFAGFMRDHLNGDSIEIIDISPMGCRTGFYMSLIGTPNEQKVSEAWLASMQDVLGVQDQASIPELNIYQCGSYTEHSLEDAHEIAKNVIARGIGVNKNEDLSLDNSLLKGSHHHHHH | soluble |
| MPLSYYEKGIMYKRKNFMGPAVKCFEEARKLEEKVGSKASLELAKIYAYFKDYEEAYKYCKEAISKSNYIEAYYLMVRILLLSNTPINEILKKAGKVKIHNSLLADIFCFEGNYEVALKIIDTCLKEDEVTRDLELIKIKCLLKLKQYDKCKDYIDNFSQSYLYFFKIRMYKVICCVLLEEYRLAWKIIDEFDYKKLSLYNKNKLKAYINFYNAALDIRGITPHENDEEYYSCIFEIIDILLATKEIKCLKKLIQTISKYDGGYLELAELYSNYGYVSEAKKLIVLYIKKFEVVNNKMIYILQKLEHHHHHH | not soluble |
| MPLTNNSTTKPQEIAAIDLGSNSFHMVIARVVNGALQVLGRLKQRVHLADGLDSNNMLSEEAIERGLACLALFAERLQGFSPDNVCIVGTHTLRQAANAETFLKRAAEVIPYPIEIISGQEEARLIFMGVEHTQPEKGRKLVIDIGGGSTEMVIGEDFEPLLVESRRMGCVSFAQQFFPGGEISKNNFRRARLAAAQKLENLAWQYRIQGWQYALGASGTIKATYEVLVEMGEKDGLITPERLEMLVENVLQFKQFSALSLPGLSEDRQSVFVPGLAILCGVFDALAIKTLRLSDGALREGVLYEMEGRFRHQDIRQRTAKSLADHYNIDREQARRVLETTEQLYTQWLAQNTKLVQPQLEALLKWAAMLHEVGLSINHSGMHRHSAYILQNTNLPGFNQEQQTLLATLVRMHRKAIKLDELPRLNLFKKKYYLPLIQLLRLSTLLNNQRQSTTTPESLRLITDDSHWTLRFPHGYLTQNSLVQLDFEREQAYWDDVVGWKLVIEEEEPDEAAKVAPEE | soluble |
| MPLTPADVHNVAFSKPPIGKRGYNEDEVDAFLDLVENELTRLIEENSDLRQRINELDQELAAGGGAGVTPQATQAIPAYEPEPGKPAPAAVSAGMNEEQALKAARVLSLAQDTADRLTNTAKAESDKMLADARANAEQILGEARHTADATVAEARQRADAMLADAQSRSEAQLRQAQEKADALQADAERKHSEIMGTINQQRAVLEGRLEQLRTFEREYRTRLKTYLESQLEELGQRGSAAPVDSNADAGGFDQFNRGKN | soluble |
| MPLVNSHIVEECLPFTSLRLDPEDINLSMGAGYVPDAEIQAISDALETEIAGICTPRFLYALFDAEPAGTCEVGVNGISLKTGSVITPYLKDAAGYVLFVATAGYEFEAFQHRIGSQGDILREFLLDAYGSAIAEAVVREVCRKVESRMFPLGYGVSHPYSPGYCGWHVTQQQLLFSCLPEFPCGVRLSDSSLMSPIKSVSGIIAYGPCIVKRKYGCELCGKADCYKNRNKLNRLEHHHHHH | soluble |
| MPLYRTYIEGEFLLGIWKSDETTEQLLASLEHKDWYREKLAVLSEKRKHEWLSVRVLLKALCGEEKEIAYYSSGRPYLKDGSRYISISHTRGYVAVALHSSCEVGMDIEQYGTRVRKVASRFIRSDEEPAMMEGDEVYALLLHWSAKEALFKLMGVEEVDFIRHLRIFPFSLSEEGEFEACEYRTGRQERYRVRYVTHPDFVLTWIIK | not soluble |
| MPMTGRCREPNCHAVVVRPLHYCTKHADKEAAYQASRERWTNRTSNSKRYKDYDRMRSKDPFKAEQHKFYQGKQWRSIREIALRRDNYLCQYCLNHKRVRTGNIGDHIVPYEVEPENRTNLANIAIACSKCHTAKTKWEQLYYGTGMGNKLKNAIPIRNVKDLPDFQKNIRLEHHHHHH | not soluble |
| MPNITWCDLPEDVSLWPGLPLSLSGDEVMPLDYHAGRSGWLLYGRGLDKQRLTQYQSKLGAAMVIVAAWCVEDYQVIRLAGSLTARATRLAHEAQLDVAPLGKIPHLRTPGLLVMDMDSTAIQIECIDEIAKLAGTGEMVAEVTERAMRGELDFTASLRSRVATLKGADANILQQVRENLPLMPGLTQLVLKLETLGWKVAIASGGFTFFAEYLRDKLRLTAVVANELEIMDGKFTGNVIGDIVDAQYKAKTLTRLAQEYEIPLAQTVAIGDGANDLPMIKAAGLGIAYHAKPKVNEKAEVTIRHADLMGVFCILSGSLNQK | not soluble |
| MPNKNTQEYWEERGRKAIENELKRDKTKAEEIERILNMMIKRIEKEINAFIVKYGDFAGVTLQEAQKIIDEFDVKAFQEEAKRLVENKDFSDRANEELKKYNTKMYVSREQMLKIQIEFLIAYATAQTELSMREYFESTAYRVFSDQAGILGEGVQVAKEVIDTIVDTQFHGVVWSERLWTNTEAMKQEVEEIIANVVIRGRHPNEYVKDMRKHLNKFEGTARQKTAAIKSLLYTESARVHAQSSIDSMKEISPEGYYMYIAKIDNRTTKVCKGLNGEIFKVKDAKIGVNFYPMHINCRSDCALLPKSMWPKKPSKKRKTKYFGGKVKSGD | not soluble |
| MPNLSCGVDNCAYNQNDMCSLNSIKVNGSFANHSEATCCGSFVEKGGFTNAAVDMGPAEPATSVACEAEKCCYNKNCKCHAESIDISGDYAQHQDNTECSTFRQELEHHHHHH | soluble |
| MPNYKLLYFDARALAEPIRIMFAMLNVPYEDYRVSVEEWSKLKPTTPFGQLPILQVDGEQFGQSMSITRYLARKFGLAGKTAEEEAYADSIVDQYRDFIFFFRQFTSSVFYGSDADHINKVRFEVVEPARDDFLAIINKFLAKSKSGFLVGDSLTWADIVIADNLTSLLKNGFLDFNKEKKLEEFYNKIHSIPEIKNYVATRKDSIV | not soluble |
| MPPDDPSGRHGPRIESFLSKVPVVSSNPLVCPYARKCTYGNKCKFYHPERANGQHMSVTERLMKENQQKKSLGAVKSMQYEMFKNKHAALSRTQSLNVVKQLTENMSQLPPTPESPMQMPRQHMQLQQANSAPWQQHTVVQRHGSSPLTPVNRQMNVYPDMYNMSQQQNHQVLPNQHGVIGGQRPPKMTTTVSQTHLFAPSTAVWGHSELSVGPVNTGSDESLAEVRSRVHFHLCNIFPHDFVESVMAANPEEVNAPVLCELIIRAQKEYRK | not soluble |
| MPPPNKRQKHARICGFMGTLARKKKEIEQQEALMKLHNLPLTYTEDQYKIVKEESTIYKNRFETAAAKNVELLKATDELKKELEFLKRQPGNQFKVDKKLKSEIDSAEEESKFYKNCFETTAAENVELLKVTDQLKKELEFLKAQQGNQFKVDMKIKSEMESATQSNLILLREKEMWKDRFNDVLSEKLALSARIRNVIGDRSESVEVPNDSNRDIWELREDLEMERSARRKAEEELKILKMTSSRGSMHISRDSTNQTPNEILLSMAIRLDSTSSN | not soluble |
| MPPRMSVAPERALIDVDREIRIDGFGPYACIDVTAEMRMCGVPWRSRATFLAGADGSLDLGRDSPVSGDYAEPDAMGLVWSMQCQDPPRAVFPPDRTDALTVHITASDGRHEAHATLVQEFLAEGVRHQAVRARAGGMSLSGELYTPP | not soluble |
| MPPTPEVGLPLWLLAELTYRCPLQCPYCSNPLDFAAQGQELSTEQWFKVMAEAREMGAAQIGFSGGEPLVRQDLAQLIAEARRLGYYTNLITSGIGLTEARIADFKKAGLDHIQISFQASDEQVNNLLAGSKKAFAQKLEMARAVKAHGYPMVLNFVTHRHNIDKIDRIIELCIALEADFVELATCQFYGWAHLNRLGLLPTRAQLERAERITNEYRDKLKAEGNPCKLIFVTPDYYEERPKACMNGWGNLFLTITPDGTALPCH | not soluble |
